B1: Hairpin Ribozyme (parent)
chain: GUCCUCUUUCACGUGCGCGUGAAAGAGAGAAGUGAACCAGAGAAACACACGUUGUGGUAUAUUACCUGGUA

Variants of: B1
Assay: self-cleavage, relative activity (ratio to wild type); higher = more cleavage; co-transcriptional

Row | Variant | self-cleavage
1 | GUCCUCUUUCACGUGCGCGUGAAAGAAAGAAGUGAACCAGAGAAACACACGUUGUGGUAUACUACCUGGUA [G27A U62C] | 0.13
2 | GUCCUCUUUCACGUGCGCGUGAAAGAGAGAAGUGAACCAGUGAAUCACACGUUGUGGUAUAUUACCUGGUA [A41U A45U] | 0.0714
3 | GUCCUCUUUCACAUGCGCGUGAAAGAGAGAAGUGAACCAGAGAAACACACGUUGUGGUAUAUAACCUGGUA [G13A U63A] | 0.194
4 | GUCCUCUUUCACGUCCGCGUGAAAGGGAGAAGUGAACCAGAGAAACACACGUUGUGGUAUAUUACCUGGUA [G15C A26G] | 1.03
5 | GUCCUCUUUCACGUGCGCGUGAAAGAGAGAAGUGAACCAGAGAAACACACGUUGUGGGAUAUUACCAGGUA [U58G U67A] | 0.181
6 | GUCCUCUUUCACGUGCUCGUGAAAGAGAGAAGUGAACCAGAGAAACACACGUUGUGGUUUAUUACCUGGUA [G17U A59U] | 0.274
7 | GUCCUCUUUCACGUGCGCGGGAAAGAGAGCAGUGAACCAGAGAAACACACGUUGUGGUAUAUUACCUGGUA [U20G A30C] | 0.194
8 | GUCCUCUUUGACGUGCGCGUGAAAGAGAGAAGUGAACCAGAGAAACACACGUUGUGGUAUGUUACCUGGUA [C10G A61G] | 0.233
9 | GUCCUCUUUCACGUUCGCGUGAAAGAGAGAAGUGAACCAGAGAUACACACGUUGUGGUAUAUUACCUGGUA [G15U A44U] | 0.174
10 | GUCCUCUUUCACGUGCGAGUGAAAGAGAGAACUGAACCAGAGAAACACACGUUGUGGUAUAUUACCUGGUA [C18A G32C] | 0.0795
11 | GUCCUCUUUCACGUGCGCCUGAAAGAGAGAAGUGAACCAGAGAAACACACGAUGUGGUAUAUUACCUGGUA [G19C U52A] | 0.957
12 | GUGCUCUUUCACGUGCGCGUGAAAGAGAGAAGUGAACCAGAGAAACACACGUUGUGGUAUAUUACCCGGUA [C3G U67C] | 0.104
13 | GUCCUCUUUCACGUGCGCGUGAAAGAGAGAAGUGAACCAGAGAAGCACACGUUGUGGUAUAUUUCCUGGUA [A45G A64U] | 0.176
14 | GUCCUCUUUCACGUGCGCGUGAAAGAGAGAAGUGAACCCGAGAAACACACCUUGUGGUAUAUUACCUGGUA [A39C G51C] | 0.324
15 | GUCCUCUUUCAGGUGCGCGUGAAAGAGAGAAGUGAACCAGAGAAACACACGUUGGGGUAUAUUACCUGGUA [C12G U55G] | 0.322
16 | GUCCUCUUUCACGUGCGCGUGAAAGAGAGAAGUGAACCAGAGGAACACACGUUGUGGUAUAUUACCUGGUA [A43G] | 0.148
17 | GUCCUCUUUCACGUGCGCGUGAAAGAGAGAAGUGAACCAGAGAAACACACGCUGUGGUAUAUUACCCGGUA [U52C U67C] | 0.274
18 | GUCCUCUUUCACGUGCGCGUGAAAGAGAGGAGUGAACCAGAGAACCACACGUUGUGGUAUAUUACCUGGUA [A30G A45C] | 0.267
19 | GUCCUCUUUCACCUGCGCGUGAAAGAGAGAAGUGAACCAGAGAAACACACGUUGUGGCAUAUUACCUGGUA [G13C U58C] | 0.869

Row | Variant | self-cleavage
20 | GUCCUCUUUCACGUGCGCGUGAAAGAGAGAAGUGAACCAGAGAAACACAUGUUGUGGUAUAUUACCGGGUA [C50U U67G] | 0.181
21 | GUCCUCUUUCACGUGCGCGUGAAAGAGAGAUGUGAACCAGAGAAACACACGUUGUGGUAUAUUACCAGGUA [A31U U67A] | 0.1
22 | GUCCUCUUUCACGUGCGCGUGAAAGAGAGAAGUGAACCAGAGAAACACACCCUGUGGUAUAUUACCUGGUA [G51C U52C] | 1.16
23 | GUCCUCUUUCACGUGCGCGUGAAAGAGAGAAUUGAACCAGAGAAACACACGUUGUAGUAUAUUACCUGGUA [G32U G56A] | 0.117
24 | GUCCUCUUUCGCGUGCGCGUGAAAGAGAGAAGUGAACCAGAGAAACACUCGUUGUGGUAUAUUACCUGGUA [A11G A49U] | 0.208
25 | GUCCUCUUUCACGUGCGCGUGAAAGAGAGAAGUGAACCAGAGAAACACACGUUGUGGUAUAUCACCUGGUA [U63C] | 0.186
26 | GUCCUAUUUCACGUGCGCGUGAAAGAGAGAAGUGAACCAGAGAUACACACGUUGUGGUAUAUUACCUGGUA [C6A A44U] | 0.167
27 | GUCCUCUUUCACGUGCGCGUGAAAGUGAGAUGUGAACCAGAGAAACACACGUUGUGGUAUAUUACCUGGUA [A26U A31U] | 0.0397
28 | GUCCUCUUUCACGUGCGCGUGAAAGAGAGAAGUCAACCAGAGAAACACACGUUGUGGUAUAUCACCUGGUA [G34C U63C] | 0.506
29 | GUCCUCUUUCACGUGCGCGUGAAAGAGAGAAGAGAACCAGAGAAACACACGUAGUGGUAUAUUACCUGGUA [U33A U53A] | 0.103
30 | GUCCUCUUCCACGUGCGCGUGAAAGAGAGAAGUGAACCAGAUAAACACACGUUGUGGUAUAUUACCUGGUA [U9C G42U] | 0.34
31 | GUCCUCUUUCAGGUGCGCGUGAAAGAGAGAAGAGAACCAGAGAAACACACGUUGUGGUAUAUUACCUGGUA [C12G U33A] | 0.0646
32 | GUCCUCUUUCACGUACGCGAGAAAGAGAGAAGUGAACCAGAGAAACACACGUUGUGGUAUAUUACCUGGUA [G15A U20A] | 0.847
33 | GUCCUCUUUCACGUGCGCGUGGAAGAGAGAAGUGAACCAGAGAAACACACGUUGUGGUAUAUUACUUGGUA [A22G C66U] | 0.453
34 | GUCCUCUUUCACGUGCGCGUGAAAGAGAGAAGUGAAUCAGAGAACCACACGUUGUGGUAUAUUACCUGGUA [C37U A45C] | 0.109
35 | GUCCUCUUUCACGUGCGCGUGAAAGAGAGAAGUGAACCAGGGAAACACACGUUGUGGUAUGUUACCUGGUA [A41G A61G] | 0.179
36 | GUCCUCUUGCACGUGCGCGUGAAAGAGAGAAGUGAACCAGAGAGACACACGUUGUGGUAUAUUACCUGGUA [U9G A44G] | 0.129
37 | GUCCUCUUUCACGUGCGCGUGAAAGAGAGAAGUGAACCAGAGAAACACACGUCGUGGUAGAUUACCUGGUA [U53C U60G] | 0.557
38 | GUCCUCUUUCACGUGCGCGUGAAAGAGAGAAGUGAACCAGAGAAACACACGGAGUGGUAUAUUACCUGGUA [U52G U53A] | 0.857
